Experimental data: patent US20110262366A1
No end group written: not given here.

Legend:
[1] = molecular target: endothelial cell receptor on HAEC (human aortic endothelial cells); test: competition, 10 µM free TKPPR against 5% BRU-114 microbubbles (competitor) on HAEC, static
[2] = molecular target: endothelial cell receptor on HAEC (human aortic endothelial cells); test: competition, 25 µM free TKPPR against TKPPR-beads (competitor) on HAEC, static, n = 11
[3] = molecular target: endothelial cell receptor on HAEC (human aortic endothelial cells); test: competition, 100 µM free TKPPR against 5% DPPE-GTKPPR microbubbles (competitor) on HAEC, static
[4] = molecular target: endothelial cell receptor on HAEC (human aortic endothelial cells); test: competition, 2.5 µM free TKPPR against 1% BRU-114 microbubbles (competitor) on HAEC, static
[5] = molecular target: endothelial cell receptor on HAEC (human aortic endothelial cells); test: competition, 200 µM free TKPPR against 5% BRU-114 microbubbles (competitor) on HAEC, static
[6] = molecular target: endothelial cell receptor on HAEC (human aortic endothelial cells); test: competition, 50 µM free TKPPR against 1% BRU-114 microbubbles (competitor) on HAEC, static
[7] = molecular target: endothelial cell receptor on HAEC (human aortic endothelial cells); test: competition, 100 µM free TKPPR against TKPPR-beads (competitor) on HAEC, static, n = 11
[8] = molecular target: endothelial cell receptor on HAEC (human aortic endothelial cells); test: competition, 50 µM free TKPPR against 1% BRU-292 microbubbles (competitor) on HAEC, static
VEGF receptors on HUVECs = test: competition with ^125I-VEGF on HUVECs
[9] = molecular target: endothelial cell receptor on HAEC (human aortic endothelial cells); test: competition, 10 µM free TKPPR against 1% BRU-114 microbubbles (competitor) on HAEC, static
[10] = molecular target: endothelial cell receptor on HAEC (human aortic endothelial cells); test: competition, 25 µM free TKPPR against 1% BRU-292 microbubbles (competitor) on HAEC, static
[11] = molecular target: endothelial cell receptor on HAEC (human aortic endothelial cells); test: competition, 25 µM free TKPPR against 1% BRU-114 microbubbles (competitor) on HAEC, static
[12] = molecular target: endothelial cell receptor on HAEC (human aortic endothelial cells); test: competition, 50 µM free TKPPR against TKPPR-beads (competitor) on HAEC, static, n = 11
[13] = molecular target: endothelial cell receptor on HAEC (human aortic endothelial cells); test: competition, 10 µM free TKPPR against 1% DPPE-GTKPPR microbubbles (competitor) on HAEC, static
[14] = molecular target: endothelial cell receptor on HAEC (human aortic endothelial cells); test: competition, 50 µM free TKPPR against 10% BRU-114 microbubbles (competitor) on HAEC, static
[15] = molecular target: endothelial cell receptor on HAEC (human aortic endothelial cells); test: competition, 100 µM free TKPPR against 5% BRU-114 microbubbles (competitor) on HAEC, static
[16] = molecular target: endothelial cell receptor on HAEC (human aortic endothelial cells); test: competition, 10 µM free TKPPR against 1% BRU-114 microbubbles (competitor) on HAEC, static; remark: listed apart in the source
[17] = molecular target: endothelial cell receptor on HAEC (human aortic endothelial cells); test: competition, 25 µM free TKPPR against 1% DPPE-GTKPPR microbubbles (competitor) on HAEC, static
[18] = molecular target: endothelial cell receptor on HAEC (human aortic endothelial cells); test: competition, 200 µM free TKPPR against TKPPR-beads (competitor) on HAEC, static, n = 11
[19] = molecular target: endothelial cell receptor on HAEC (human aortic endothelial cells); test: competition, free TKPPR 10 µM (head prints 10 µmol) against 1% DPPE-GTKPPR microbubbles (competitor) on HAEC, static
[20] = molecular target: endothelial cell receptor on HAEC (human aortic endothelial cells); test: competition, 5 µM free TKPPR against 1% BRU-114 microbubbles (competitor) on HAEC, static
[21] = molecular target: endothelial cell receptor on HAEC (human aortic endothelial cells); test: competition, 100 µM free TKPPR against 10% BRU-114 microbubbles (competitor) on HAEC, static
[22] = molecular target: endothelial cell receptor on HAEC (human aortic endothelial cells); test: competition, 100 µM free TKPPR against 1% BRU-114 microbubbles (competitor) on HAEC, static
[23] = molecular target: endothelial cell receptor on HAEC (human aortic endothelial cells); test: competition, 5 µM free TKPPR against 1% DPPE-GTKPPR microbubbles (competitor) on HAEC, static
[24] = molecular target: endothelial cell receptor on HAEC (human aortic endothelial cells); test: competition, 200 µM free TKPPR against 10% BRU-114 microbubbles (competitor) on HAEC, static
[25] = molecular target: endothelial cell receptor on HAEC (human aortic endothelial cells); test: competition, 10 µM free TKPPR against 1% BRU-114 microbubbles (competitor) on HAEC, static; remark: listed apart in the source
[26] = molecular target: endothelial cell receptor on HAEC (human aortic endothelial cells); test: competition, 100 µM free TKPPR against 1% DPPE-GTKPPR microbubbles (competitor) on HAEC, static
[27] = molecular target: endothelial cell receptor on HAEC (human aortic endothelial cells); test: competition against 5% DPPE-GTKPPR microbubbles (competitor) on HAEC, static
[28] = molecular target: endothelial cell receptor on RAEC (rabbit aortic endothelial cells); test: competition, 100 µM free TKPPR against 5% DPPE-GTKPPR microbubbles (competitor) on RAEC, static
[29] = molecular target: endothelial cell receptor on HAEC (human aortic endothelial cells); test: competition, 50 µM free TKPPR against 1% BRU-114 microbubbles (competitor) on HAEC, static; remark: listed apart in the source
[30] = molecular target: endothelial cell receptor on HAEC (human aortic endothelial cells); test: competition, 100 µM free TKPPR against 1% BRU-114 microbubbles (competitor) on HAEC, static; remark: listed apart in the source
[31] = molecular target: endothelial cell receptor on HAEC (human aortic endothelial cells); test: competition, 2.5 µM free TKPPR against 1% BRU-292 microbubbles (competitor) on HAEC, static
[32] = molecular target: endothelial cell receptor on HAEC (human aortic endothelial cells); test: competition, 25 µM free TKPPR against 2% BRU-114 microbubbles (competitor) on HAEC, static
[33] = molecular target: endothelial cell receptor on HAEC (human aortic endothelial cells); test: competition, 10 µM free TKPPR against 10% BRU-114 microbubbles (competitor) on HAEC, static

Bubbles Bound in presence of competitor [1]: 1340 bubbles
% Inhibition [2]: 50.7%
HAEC bubbles bound in presence of competitor [3]: 58 bubbles
Bubbles Bound in presence of competitor [4]: 1240 bubbles
Bubbles Bound in presence of competitor [5]: 13 bubbles
Bubbles Bound in presence of competitor [6]: 9 bubbles
% Inhibition [7]: 62%
Bubbles Bound in presence of competitor [8]: 462 bubbles
IC50 (VEGF receptors on HUVECs): 250 µM
Bubbles Bound in presence of competitor [9]: 528 bubbles
Bubbles Bound in presence of competitor [10]: 718 bubbles
Bubbles Bound in presence of competitor [11]: 106 bubbles
% Inhibition [12]: 50.5%
Average % Inhibition [13]: 79.6%
Bubbles Bound in presence of competitor [14]: 857 bubbles
Bubbles Bound in presence of competitor [15]: 12 bubbles
Bubbles Bound in presence of competitor [16]: 10 bubbles
Average % Inhibition [17]: 82%
% Inhibition [18]: 72.2%
Bubbles Bound in presence of competitor [19]: 96 bubbles
Bubbles Bound in presence of competitor [20]: 790 bubbles
Bubbles Bound in presence of competitor [21]: 399 bubbles
Bubbles Bound in presence of competitor [22]: 17 bubbles
Average % Inhibition [23]: 45.7%
Bubbles Bound in presence of competitor [24]: 66 bubbles
Bubbles Bound in presence of competitor [25]: 535 bubbles
Average % Inhibition [26]: 93.7%
% more bubbles bound [27]: 19%
RAEC bubbles bound in presence of competitor [28]: 21 bubbles
Bubbles Bound in presence of competitor [29]: 5 bubbles
Bubbles Bound in presence of competitor [30]: 4 bubbles
Bubbles Bound in presence of competitor [31]: 888 bubbles
Bubbles Bound % (of control binding) [32]: 16 % of control
Bubbles Bound in presence of competitor [33]: 1090 bubbles
B1: TKPPR-OH (L-threonyl-L-lysyl-L-prolyl-L-prolyl-L-arginine) (peptide)
peptide: TKPPR-OH
